This data set concerns the molecule itself. The data set is described as follows: cryo-EM structure; ClpB hexamer with a 20-fold molar excess of casein, 10 min at room temperature in 25 mM Tris-HCl pH 7.4, 25 mM KCl, 10 mM MgCl2, 2 mM ATPγS, 1 mM DTT; single-particle cryo-EM.

B1: ClpB-DWB-K476C (natural protein)
chain: not shown
notes: ClpB, bacterial disaggregase, with K476C (M-domain) and the double Walker B mutations E279A/E678A; ATPase-deficient variant used to trap substrate for cryo-EM in the presence of ATPγS; also called ClpB-K476C-DWB; ClpB-K476C/E279A/E678A; source: E. coli ΔclpB::kan cells, purified (Ni-IDA, size exclusion chromatography Superdex S200)
As usually defined, the stoichiometry N is the number of molecules, sites or subunits per partner or assembly. As for B1, the “stoichiometry N” value amounted to 6.

The record behind these values is article PMC6593972, “Two-Step Activation Mechanism of the ClpB Disaggregase for Sequential Substrate Threading by the Main ATPase Motor” (Cell Reports, 2019).
